Source: US20260265373A1

Legend:
[1] = molecular target: full-length human ILT7 on cells (human) (UniProt P59901); assay: flow cytometry of human PBMCs, gate on pDCs (CD11c low, HLA-DR+, CD123+)
[2] = molecular target: full-length human ILT7 on cells (human) (UniProt P59901); assay: competitive FACS on CHOK1 cells expressing human ILT7; competitor Tab1-Alexa488; negative control, reference of the calculation
[3] = molecular target: full-length human ILT7 on cells (human) (UniProt P59901); assay: competitive FACS on CHOK1 cells expressing human ILT7; competitor Tab1-Alexa488; negative control that sets the reference signal

Chain of full-length human ILT7 on cells (human) (P59901 other isoform, or with tags, fused parts or gaps): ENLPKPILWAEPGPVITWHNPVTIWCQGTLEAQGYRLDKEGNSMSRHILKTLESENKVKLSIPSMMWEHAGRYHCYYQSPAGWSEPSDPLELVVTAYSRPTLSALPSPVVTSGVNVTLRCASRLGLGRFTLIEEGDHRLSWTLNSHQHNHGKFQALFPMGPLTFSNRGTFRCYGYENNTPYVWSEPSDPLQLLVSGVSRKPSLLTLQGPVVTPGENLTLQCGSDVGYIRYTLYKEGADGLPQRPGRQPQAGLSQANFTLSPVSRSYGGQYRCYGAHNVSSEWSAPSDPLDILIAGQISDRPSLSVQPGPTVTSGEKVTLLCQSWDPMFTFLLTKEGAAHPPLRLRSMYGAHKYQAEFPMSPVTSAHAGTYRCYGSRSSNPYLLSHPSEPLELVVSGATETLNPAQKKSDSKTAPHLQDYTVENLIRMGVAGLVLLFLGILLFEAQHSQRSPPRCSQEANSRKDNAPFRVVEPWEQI

isotype antibody hIgG1 (negative control)
% targeted cells in subpopulation (pDC) [1]: 2.2%
Inhibition (%) [2]: 0%
MFI of Tab1-Alexa488 [3]: 9670
